Experimental data from US20220009979A1 (Alexion, published 2022).
Values belong to the binder of their own block, whether it stands above or below them.

Molecular target: T1, Purified C3d (Quidel, San Diego, Calif.) (UniProt P01024 1002-1303, biotinylated via sulfo-NHS-LC linkage)
T1 construct: domain: C3d; also called immobilized C3d
Test: Octet BLI; biotinylated C3d immobilized on streptavidin biosensors, construct in solution at 2 uM, 600 s association, 1200 s dissociation

T1 sequence (P01024 1002-1303 limits assumed): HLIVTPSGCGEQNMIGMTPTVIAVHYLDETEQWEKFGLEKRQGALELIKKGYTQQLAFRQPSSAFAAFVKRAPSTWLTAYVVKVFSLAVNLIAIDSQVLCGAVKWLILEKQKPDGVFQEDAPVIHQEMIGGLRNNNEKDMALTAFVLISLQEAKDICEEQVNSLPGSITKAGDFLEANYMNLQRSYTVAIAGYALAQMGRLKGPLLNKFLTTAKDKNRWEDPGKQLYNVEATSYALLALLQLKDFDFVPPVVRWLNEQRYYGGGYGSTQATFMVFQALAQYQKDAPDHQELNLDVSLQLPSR

Kd: 744 nM
koff: 0.18 s⁻¹
kon: 242000 M⁻¹ s⁻¹
B1: Compound AC (Fc fusion)
chain: ISCGSPPPILNGRISYYSTPIAVGTVIRYSCSGTFRLIGEKSLLCITKDKVDGTWDKPAPKCEYFNKYSSCPEPIVPGGYKIRGSTPYRHGDSVTFACKTNFSMNGQKSVWCQANNMWGPTRLPTCVSVFPGGGGSDAAVECPPCPAPPVAGPSVFLFPPKPKDTLMISRTPEVTCVVVDVSQEDPEVQFNWYVDGVEVHNAKTKPREEQFNSTYRVVSVLTVLHQDWLNGKEYKCKVSNKGLPSSIEKTISKAKGQPREPQVYTLPPSQEEMTKNQVSLTCLVKGFYPSDIAVEWESNGQPENNYKTTPPVLDSDGSFFLYSRLTVDKSRWQEGNVFSCSVMHEALHNHYTQKSLSLSLGKGGGGAGGGGAGGGAGGGGSEDCNELPPRRNTEILTGSWSDQTYPEGTQAIYKCRPGYRSLGNVIMVCRKGEWVALNPLRKCQKRPCGHPGDTPFGTFTLTGGNVFEYGVKAVYTCNEGYQLLGEINYRECDTDGWTNDIPICEVVKCLPVTAPENGKIVSSAMEPDREYHFGQAVRFVCNSGYKIEGDEEMHCSDDGFWSKEKPKCVEISCKSPDVINGSPISQKIIYKENERFQYKCNMGYEYSERGDAVCTESGWRPLPSCEEKS

Kd: 679 nM
koff: 0.189 s⁻¹
kon: 278000 M⁻¹ s⁻¹
B2: Compound AQ (Fc fusion)
chain: ISCGSPPPILNGRISYYSTPIAVGTVIRYSCSGTFRLIGEKSLLCITKDKVDGTWDKPAPKCEYFNKYSSCPEPIVPGGYKIRGSTPYRHGDSVTFACKTNFSMNGQKSVWCQANNMWGPTRLPTCVSVFPGGGGSDAAVECPPCPAPPVAGPSVFLFPPKPKDTLMISRTPEVTCVVVDVSQEDPEVQFNWYVDGVEVHNAKTKPREEQFNSTYRVVSVLTVLHQDWLNGKEYKCKVSNKGLPSSIEKTISKAKGQPREPQVYTLPPSQEEMTKNQVSLTCLVKGFYPSDIAVEWESNGQPENNYKTTPPVLDSDGSFFLYSRLTVDKSRWQEGNVFSCSVMHEALHNHYTQKSLSLSLGK

binding result: no binding (tested: 2 uM)
B3: Compound AP (Fc fusion)
chain: VECPPCPAPPVAGPSVFLFPPKPKDTLMISRTPEVTCVVVDVSQEDPEVQFNWYVDGVEVHNAKTKPREEQFNSTYRVVSVLTVLHQDWLNGKEYKCKVSNKGLPSSIEKTISKAKGQPREPQVYTLPPSQEEMTKNQVSLTCLVKGFYPSDIAVEWESNGQPENNYKTTPPVLDSDGSFFLYSRLTVDKSRWQEGNVFSCSVMHEALHNHYTQKSLSLSLGKGGGGAGGGGAGGGAGGGGSEDCNELPPRRNTEILTGSWSDQTYPEGTQAIYKCRPGYRSLGNVIMVCRKGEWVALNPLRKCQKRPCGHPGDTPFGTFTLTGGNVFEYGVKAVYTCNEGYQLLGEINYRECDTDGWTNDIPICEVVKCLPVTAPENGKIVSSAMEPDREYHFGQAVRFVCNSGYKIEGDEEMHCSDDGFWSKEKPKCVEISCKSPDVINGSPISQKIIYKENERFQYKCNMGYEYSERGDAVCTESGWRPLPSCEEKS
